The text below walks through data of patent publication US20220291215A1.

Experiment [1] addresses DP4/MAGE-A3243-258 TCR, clone R12C9.
The target is the same in experiment [2]. This is another data set of the same source.

The substance Control (peptide-MHC) displayed a % dimer+ CD4+ cells in experiment [1] of 0.4%. Also, the % dimer+ Vβ22+ cells in experiment [2] came to 0.1%.
